Here are results for 7 molecules from publication PMC314469, “Protein Interaction Networks by Proteome Peptide Scanning” (PLoS Biology, 2004).

First the molecules themselves.
T1: Myo5 SH3 (MYO5_YEAST), Q04439
T1 chain: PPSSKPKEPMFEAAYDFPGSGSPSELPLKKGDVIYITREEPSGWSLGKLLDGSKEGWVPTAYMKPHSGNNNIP

T2: Boi2 SH3 (BOI2_YEAST), P39969
T2 chain: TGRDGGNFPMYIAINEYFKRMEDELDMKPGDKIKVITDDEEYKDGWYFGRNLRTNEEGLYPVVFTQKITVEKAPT

T3: Yfr024 SH3 (LSB3_YEAST), P43603
T3 chain: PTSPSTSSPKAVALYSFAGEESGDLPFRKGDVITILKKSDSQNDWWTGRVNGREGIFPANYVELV

T4: Yhr016c SH3 (YSC84_YEAST), P32793
T4 chain: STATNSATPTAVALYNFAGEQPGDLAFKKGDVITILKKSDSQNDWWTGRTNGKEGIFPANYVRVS

T5: Rvs167 SH3 (RV167_YEAST), P39743
T5 chain: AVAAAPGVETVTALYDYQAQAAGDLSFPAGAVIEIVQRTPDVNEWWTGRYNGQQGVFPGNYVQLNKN

T6: Boi1 SH3 (BOI1_YEAST), P38041
T6 chain: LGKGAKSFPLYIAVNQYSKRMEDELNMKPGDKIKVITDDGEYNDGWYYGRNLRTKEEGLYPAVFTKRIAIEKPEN

One test addresses T1, Myo5 SH3 (MYO5_YEAST), Q04439. The experiment in a line: SPOT array.
As for YAVGRIVPDSPTYD [YBL035C 295-308], the normalised SPOT signal, Boehringer light units (BLU); mean over the file's lines of this peptide turned out to be 189.

On to YILPKTDPRSPYYI [YPR115W 96-109], for which the normalised SPOT signal, Boehringer light units (BLU); mean over the file's lines of this peptide was 188.

Consider YDLTRFLPNHPGGQ [YML054C 114-127], for which the normalised SPOT signal, Boehringer light units (BLU); mean over the file's lines of this peptide came to 80.6.

Consider YFVKKIRPGNPLTK [YJL149W 279-292], for which the normalised SPOT signal, Boehringer light units (BLU); mean over the file's lines of this peptide came out at 508.

On to YKNRKNLPTIPIRL [YGL085W 139-152], for which the normalised SPOT signal, Boehringer light units (BLU); mean over the file's lines of this peptide is 961.

Consider YGSEKGSPAGPSAV [YDR429C 58-71], for which the normalised SPOT signal, Boehringer light units (BLU); mean over the file's lines of this peptide worked out at 50.3.

In turn, YSPWKLSPLLPILY [YCR001W 27-40] had a normalised SPOT signal, Boehringer light units (BLU); mean over the file's lines of this peptide of 176.

The target of the next test is T2, Boi2 SH3 (BOI2_YEAST), P39969. The test can be described thus: SPOT array.
As to YAVGRIVPDSPTYD [YBL035C 295-308], the normalised SPOT signal, Boehringer light units (BLU); mean over the file's lines of this peptide was 33.2.

Take YILPKTDPRSPYYI [YPR115W 96-109]: the normalised SPOT signal, Boehringer light units (BLU); mean over the file's lines of this peptide amounted to 44.9.

YDLTRFLPNHPGGQ [YML054C 114-127] came in with a normalised SPOT signal, Boehringer light units (BLU); mean over the file's lines of this peptide of 46.2.

In turn, YFVKKIRPGNPLTK [YJL149W 279-292] displayed a normalised SPOT signal, Boehringer light units (BLU); mean over the file's lines of this peptide of 58.3.

Turning to YKNRKNLPTIPIRL [YGL085W 139-152], the normalised SPOT signal, Boehringer light units (BLU); mean over the file's lines of this peptide was 48.9.

Molecule YGSEKGSPAGPSAV [YDR429C 58-71] displayed a normalised SPOT signal, Boehringer light units (BLU); mean over the file's lines of this peptide of 40.

For YSPWKLSPLLPILY [YCR001W 27-40], the normalised SPOT signal, Boehringer light units (BLU); mean over the file's lines of this peptide is 99.3.

In a further test the target is Sho1 SH3 (SHO1_YEAST), P40073. The experiment in a line: SPOT array.
Sequence of Sho1 SH3 (SHO1_YEAST), P40073 (P40073 295-366): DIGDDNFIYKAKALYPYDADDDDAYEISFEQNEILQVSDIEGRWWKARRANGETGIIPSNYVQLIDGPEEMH
The molecule YAVGRIVPDSPTYD [YBL035C 295-308] showed a normalised SPOT signal, Boehringer light units (BLU); mean over the file's lines of this peptide of 39.9.

The molecule YILPKTDPRSPYYI [YPR115W 96-109] registered a normalised SPOT signal, Boehringer light units (BLU); mean over the file's lines of this peptide of 19.5.

Molecule YDLTRFLPNHPGGQ [YML054C 114-127] had a normalised SPOT signal, Boehringer light units (BLU); mean over the file's lines of this peptide of 59.7.

As for YFVKKIRPGNPLTK [YJL149W 279-292], the normalised SPOT signal, Boehringer light units (BLU); mean over the file's lines of this peptide was determined as 139.

In the case of YKNRKNLPTIPIRL [YGL085W 139-152], the normalised SPOT signal, Boehringer light units (BLU); mean over the file's lines of this peptide came out at 28200.

The molecule YGSEKGSPAGPSAV [YDR429C 58-71] showed a normalised SPOT signal, Boehringer light units (BLU); mean over the file's lines of this peptide of 46.4.

Regarding YSPWKLSPLLPILY [YCR001W 27-40], the normalised SPOT signal, Boehringer light units (BLU); mean over the file's lines of this peptide was 63.6.

A further test addresses T3, Yfr024 SH3 (LSB3_YEAST), P43603. The experiment in a line: SPOT array.
For the molecule YAVGRIVPDSPTYD [YBL035C 295-308], the normalised SPOT signal, Boehringer light units (BLU); mean over the file's lines of this peptide amounted to 159.

Consider YILPKTDPRSPYYI [YPR115W 96-109], for which the normalised SPOT signal, Boehringer light units (BLU); mean over the file's lines of this peptide is 113.

For YDLTRFLPNHPGGQ [YML054C 114-127], the normalised SPOT signal, Boehringer light units (BLU); mean over the file's lines of this peptide stood at 147.

Take YFVKKIRPGNPLTK [YJL149W 279-292]: the normalised SPOT signal, Boehringer light units (BLU); mean over the file's lines of this peptide came out at 244.

As to YKNRKNLPTIPIRL [YGL085W 139-152], the normalised SPOT signal, Boehringer light units (BLU); mean over the file's lines of this peptide came out at 2960.

On to YGSEKGSPAGPSAV [YDR429C 58-71], for which the normalised SPOT signal, Boehringer light units (BLU); mean over the file's lines of this peptide stood at 13.4.

Molecule YSPWKLSPLLPILY [YCR001W 27-40] returned a normalised SPOT signal, Boehringer light units (BLU); mean over the file's lines of this peptide of 514.

The next test deals with T4, Yhr016c SH3 (YSC84_YEAST), P32793. The test can be described thus: SPOT array.
With YAVGRIVPDSPTYD [YBL035C 295-308], the normalised SPOT signal, Boehringer light units (BLU); mean over the file's lines of this peptide is 257.

The molecule YILPKTDPRSPYYI [YPR115W 96-109] yielded a normalised SPOT signal, Boehringer light units (BLU); mean over the file's lines of this peptide of 27.8.

Regarding YDLTRFLPNHPGGQ [YML054C 114-127], the normalised SPOT signal, Boehringer light units (BLU); mean over the file's lines of this peptide is 22.5.

YFVKKIRPGNPLTK [YJL149W 279-292] returned a normalised SPOT signal, Boehringer light units (BLU); mean over the file's lines of this peptide of 92.2.

The molecule YKNRKNLPTIPIRL [YGL085W 139-152] showed a normalised SPOT signal, Boehringer light units (BLU); mean over the file's lines of this peptide of 538.

YGSEKGSPAGPSAV [YDR429C 58-71] displayed a normalised SPOT signal, Boehringer light units (BLU); mean over the file's lines of this peptide of 8.8.

For YSPWKLSPLLPILY [YCR001W 27-40], the normalised SPOT signal, Boehringer light units (BLU); mean over the file's lines of this peptide came out at 40.4.

The target in another test is T5, Rvs167 SH3 (RV167_YEAST), P39743. The test can be described thus: SPOT array.
YAVGRIVPDSPTYD [YBL035C 295-308] had a normalised SPOT signal, Boehringer light units (BLU); mean over the file's lines of this peptide of 127.

YILPKTDPRSPYYI [YPR115W 96-109] had a normalised SPOT signal, Boehringer light units (BLU); mean over the file's lines of this peptide of 176.

YDLTRFLPNHPGGQ [YML054C 114-127] registered a normalised SPOT signal, Boehringer light units (BLU); mean over the file's lines of this peptide of 20.5.

Molecule YFVKKIRPGNPLTK [YJL149W 279-292] showed a normalised SPOT signal, Boehringer light units (BLU); mean over the file's lines of this peptide of 220.

With YKNRKNLPTIPIRL [YGL085W 139-152], the normalised SPOT signal, Boehringer light units (BLU); mean over the file's lines of this peptide worked out at 2750.

YGSEKGSPAGPSAV [YDR429C 58-71] came in with a normalised SPOT signal, Boehringer light units (BLU); mean over the file's lines of this peptide of 28.6.

For YSPWKLSPLLPILY [YCR001W 27-40], the normalised SPOT signal, Boehringer light units (BLU); mean over the file's lines of this peptide was found to be 66.5.

The next test addresses T6, Boi1 SH3 (BOI1_YEAST), P38041. The experiment in a line: SPOT array.
The molecule YAVGRIVPDSPTYD [YBL035C 295-308] yielded a normalised SPOT signal, Boehringer light units (BLU); mean over the file's lines of this peptide of 87.3.

YILPKTDPRSPYYI [YPR115W 96-109] showed a normalised SPOT signal, Boehringer light units (BLU); mean over the file's lines of this peptide of 222.

For the molecule YDLTRFLPNHPGGQ [YML054C 114-127], the normalised SPOT signal, Boehringer light units (BLU); mean over the file's lines of this peptide was found to be 59.5.

As to YFVKKIRPGNPLTK [YJL149W 279-292], the normalised SPOT signal, Boehringer light units (BLU); mean over the file's lines of this peptide was 410.

Turning to YKNRKNLPTIPIRL [YGL085W 139-152], the normalised SPOT signal, Boehringer light units (BLU); mean over the file's lines of this peptide turned out to be 12400.

The molecule YGSEKGSPAGPSAV [YDR429C 58-71] registered a normalised SPOT signal, Boehringer light units (BLU); mean over the file's lines of this peptide of 65.1.

The molecule YSPWKLSPLLPILY [YCR001W 27-40] registered a normalised SPOT signal, Boehringer light units (BLU); mean over the file's lines of this peptide of 88.3.
